Assay results reported in US20230381281A1, “PHARMACEUTICAL COMPOSITION COMPRISING GLUCAGON/GLP-1/GIP TRIPLE AGONIST OR LONG-ACTING CONJUGATE THEREOF FOR PREVENTING OR TREATING LUPUS-RELATED DISEASES” (HANMI PHARM. CO., LTD., priority 2020, published 2023).
Bridge positions count the residues as written; N and C are the ends. Square brackets hold non-standard residues; d marks the D form. Ends that are not written are not given here. * marks the point of attachment. Acetyl(2-(4-imidazolyl)) = O=C(Cc1c[nH]cn1)*; Aib = CC(C)(N)C(=O)O

T1: human GIP receptor (human, UniProt P48546 22-466)
T1 sequence (looked up): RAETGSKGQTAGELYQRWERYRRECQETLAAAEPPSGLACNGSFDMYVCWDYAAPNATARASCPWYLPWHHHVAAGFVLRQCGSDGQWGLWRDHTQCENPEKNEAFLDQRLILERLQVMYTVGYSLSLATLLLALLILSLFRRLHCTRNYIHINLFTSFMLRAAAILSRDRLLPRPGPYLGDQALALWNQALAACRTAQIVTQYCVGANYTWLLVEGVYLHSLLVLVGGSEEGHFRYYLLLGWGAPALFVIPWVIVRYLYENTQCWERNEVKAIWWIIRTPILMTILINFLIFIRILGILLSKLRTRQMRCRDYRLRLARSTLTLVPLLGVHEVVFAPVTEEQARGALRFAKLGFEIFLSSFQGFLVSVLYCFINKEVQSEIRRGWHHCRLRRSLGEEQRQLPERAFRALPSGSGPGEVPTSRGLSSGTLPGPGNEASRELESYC

B1: Triple agonist of SEQ ID NO: 49 (peptide)
peptide: {Acetyl(2-(4-imidazolyl))}-[Aib]QGTFTSDYSICMDEIHQKDFVNWLLNTK
modifications: bridge 15-19
B2: Triple agonist of SEQ ID NO: 4 (peptide)
peptide: H[Aib]QGTFTSDVSSYLLGQQQKEFIAWLVKGC
B3: Triple agonist of SEQ ID NO: 60 (peptide)
peptide: {Acetyl(2-(4-imidazolyl))}-[Aib]QGTFTSDYSIAMDEKHCKDFVNWLLNTK
modifications: bridge 15-19
B4: Triple agonist of SEQ ID NO: 35 (peptide)
peptide: H[Aib]QGTFTSDYSIAMDEIHQKDFVNWLLNTKC
modifications: bridge 16-20
B5: Triple agonist of SEQ ID NO: 37 (peptide)
peptide: H[Aib]QGTFTSDYSKYLDECRQKEFVQWLLNGGPSSGAPPPSG
modifications: bridge 16-20
B6: Triple agonist of SEQ ID NO: 51 (peptide)
peptide: H[Aib]QGTFTSDYSKYLDEKRQKEFVQWLLNTC
modifications: bridge 16-20
B7: Triple agonist of SEQ ID NO: 57 (peptide)
peptide: H[Aib]QGTFTSDYSIAMDEIHQKDFVNWLLNTC
modifications: bridge 16-20
B8: Triple agonist of SEQ ID NO: 36 (peptide)
peptide: H[Aib]QGTFTSDYSKYLCEKRQKEFVQWLLNGGPSSGAPPPSG
modifications: bridge 16-20
B9: Triple agonist of SEQ ID NO: 40 (peptide)
peptide: H[Aib]QGTFTSDKSKYLDERACQDFVQWLLDGGPSSGAPPPS
B10: Triple agonist of SEQ ID NO: 43 (peptide)
peptide: Y[Aib]QGTFTSDYSKYLDEKRAKEFVQWLLDHHCSSGQPPPS
modifications: bridge 16-20
B11: Triple agonist of SEQ ID NO: 53 (peptide)
peptide: H[Aib]EGTFTSDYSIAMDEIHQKDFVNWLLAQC
modifications: bridge 16-20
B12: Triple agonist of SEQ ID NO: 42 (peptide)
peptide: Y[Aib]QGTFTSDYSKYLDEKRAKEFVQWLLDHHPSSGQPPPSC
modifications: bridge 16-20
B13: Triple agonist of SEQ ID NO: 54 (peptide)
peptide: H[Aib]EGTFTSDYSIAMDEIHQKDFVDWLLAEC
modifications: bridge 16-20
B14: Triple agonist of SEQ ID NO: 1 (peptide)
peptide: H[Aib]QGTFTSDVSSYLDGQAAKEFIAWLVKGC
B15: Triple agonist of SEQ ID NO: 44 (peptide)
peptide: HGQGTFTSDCSKQLDGQAAQEFVAWLLAGGPSSGAPPPS

The binders below were run against human GLP-1 receptor (human, UniProt P43220 24-463) (assay: cell-based or functional assay).

Row | Binder | In vitro activity compared to native peptide (%) vs GLP-1 [%]
1 | B1 | 29.8
2 | B2 | 8.5
3 | B3 | 106
4 | B4 | 7.5
5 | B5 | 236
6 | B6 | 14.4
7 | B7 | 11.7
8 | B8 | 37.4
9 | B9 | 75.2
10 | B10 | 12.6
11 | B11 | 161
12 | B12 | 33.9
13 | B13 | 30.6
14 | B14 | 3.2
15 | B15 | 1.3

These binders were tested against T1, human GIP receptor (assay: cell-based or functional assay).

Row | Binder | In vitro activity compared to native peptide (%) vs GIP [%]
16 | B1 | 3.3
17 | B2 | < 0.1
18 | B3 | 18.2
19 | B4 | 1.3
20 | B5 | 2.2
21 | B6 | 0.1
22 | B7 | 0.3
23 | B8 | 0.2
24 | B9 | < 0.1
25 | B10 | 3.7
26 | B11 | 1.3
27 | B12 | 7.8
28 | B13 | 0.1
29 | B14 | < 0.1
30 | B15 | < 0.1

Each binder was assayed against human GCG receptor (human, UniProt P47871 26-477) (assay: cell-based or functional assay).
Sequence of human GCG receptor (P47871 26-477): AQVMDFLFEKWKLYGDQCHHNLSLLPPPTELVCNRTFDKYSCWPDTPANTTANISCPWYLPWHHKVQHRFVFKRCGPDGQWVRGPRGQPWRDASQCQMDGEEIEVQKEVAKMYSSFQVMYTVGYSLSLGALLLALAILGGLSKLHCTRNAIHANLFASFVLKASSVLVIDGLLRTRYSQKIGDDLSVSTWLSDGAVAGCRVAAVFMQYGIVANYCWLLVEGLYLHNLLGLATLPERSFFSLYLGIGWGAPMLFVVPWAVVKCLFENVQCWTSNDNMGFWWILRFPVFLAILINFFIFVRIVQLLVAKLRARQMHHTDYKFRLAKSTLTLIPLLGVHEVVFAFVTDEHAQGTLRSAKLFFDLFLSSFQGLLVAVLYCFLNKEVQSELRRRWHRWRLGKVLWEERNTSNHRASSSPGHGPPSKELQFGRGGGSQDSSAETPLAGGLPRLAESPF

Row | Binder | In vitro activity compared to native peptide (%) vs Glucagon [%]
31 | B1 | < 0.1
32 | B2 | < 0.1
33 | B3 | < 0.1
34 | B4 | < 0.1
35 | B5 | 6.21
36 | B6 | 2
37 | B7 | < 0.1
38 | B8 | 0.39
39 | B9 | < 0.1
40 | B10 | 88.4
41 | B11 | 8.4
42 | B12 | 206
43 | B13 | 1.4
44 | B14 | < 0.1
45 | B15 | < 0.1
